# Data published in patent US20240218048.
# Assays:
# [1] = system: factor VIII expressed by F8-BDD (normal unmodified B-domain-deleted F8)
# [2] = system: factor VIII expressed by F8-BDD-299
# [3] = system: factor VIII expressed by F8-BDD-N8
substance,measurement,setting,value
Thrombin (FIIa),"activity of factor VIII after thrombin was added (substrate luminescence assay, every two minutes)",[1],the activity of factor VIII expressed by F8-BDD and F8-BDD-N8 is slightly increased
same,"activity of factor VIII after thrombin was added (substrate luminescence assay, every two minutes)",[2],"From the second minute, the activity of factor VIII expressed by F8-BDD-299 is significantly increased"
same,"activity of factor VIII after thrombin was added (substrate luminescence assay, every two minutes)",[3],the activity of factor VIII expressed by F8-BDD and F8-BDD-N8 is slightly increased
